Results reported in patent publication US20260275312, “CRISPR NUCLEASE POLYPEPTIDES AND GENE EDITING SYSTEMS COMPRISING SUCH” (ARBOR BIOTECHNOLOGIES, INC., published 2026).

Tests used:
Settings in all cases: tags: N-term SV40 NLS, XTEN linker + C-term nucleoplasmin NLS
[1] = target: T1, Nuclease S (synthetic construct); test: cell_activity; HEK293T; PAM AGCC 3'
T1 chain: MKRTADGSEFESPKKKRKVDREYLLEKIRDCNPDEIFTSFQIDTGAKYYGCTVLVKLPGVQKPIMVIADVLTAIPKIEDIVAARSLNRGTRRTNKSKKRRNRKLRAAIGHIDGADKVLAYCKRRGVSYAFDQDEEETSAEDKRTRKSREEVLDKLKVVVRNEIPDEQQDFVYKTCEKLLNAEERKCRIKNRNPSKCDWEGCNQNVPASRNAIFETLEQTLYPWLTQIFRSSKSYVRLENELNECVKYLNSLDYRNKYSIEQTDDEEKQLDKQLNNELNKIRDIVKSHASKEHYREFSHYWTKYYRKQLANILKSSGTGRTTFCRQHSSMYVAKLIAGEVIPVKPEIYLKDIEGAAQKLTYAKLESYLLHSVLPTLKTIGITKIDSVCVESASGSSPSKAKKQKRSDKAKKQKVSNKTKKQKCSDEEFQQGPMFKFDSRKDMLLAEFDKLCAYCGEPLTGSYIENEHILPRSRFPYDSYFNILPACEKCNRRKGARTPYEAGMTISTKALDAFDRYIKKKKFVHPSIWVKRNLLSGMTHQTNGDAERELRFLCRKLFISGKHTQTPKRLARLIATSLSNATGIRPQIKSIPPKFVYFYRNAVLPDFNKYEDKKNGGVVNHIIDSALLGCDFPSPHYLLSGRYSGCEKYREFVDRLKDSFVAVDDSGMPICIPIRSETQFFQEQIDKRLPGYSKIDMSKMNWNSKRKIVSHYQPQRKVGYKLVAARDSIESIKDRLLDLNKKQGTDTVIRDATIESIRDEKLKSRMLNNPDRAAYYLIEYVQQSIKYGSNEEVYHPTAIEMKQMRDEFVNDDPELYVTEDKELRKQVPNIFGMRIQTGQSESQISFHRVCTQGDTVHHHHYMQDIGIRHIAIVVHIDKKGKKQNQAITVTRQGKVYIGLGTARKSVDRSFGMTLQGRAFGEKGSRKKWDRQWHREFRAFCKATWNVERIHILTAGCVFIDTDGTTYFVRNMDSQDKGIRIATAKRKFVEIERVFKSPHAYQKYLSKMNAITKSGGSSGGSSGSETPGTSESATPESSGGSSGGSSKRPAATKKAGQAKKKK
Description: (§1) HEK293T cells were transfected with plasmids expressing the Nuclease S polypeptides and the gRNAs provided herein following the methods provided in Example 1 above. Gene editing efficiencies were determined by NGS following the methods also provided in Example 1. The NGS results were analyzed also following the methods provided in Example 1 above.
Each Nuclease S variant was cloned as described in Example 6. HEK293T cells were further transfected with a plasmid encoding a Nuclease S variant and a plasmid encoding an RNA guide of Table 11, followed by NGS analysis, as described in Example 5. For each target, indel ratios, referring to the percentage of NGS reads comprising indels, were calculated for the reference Nuclease S (SEQ ID NO: 49) and for each Nuclease S variant. The indel ratios shown in Table 13 were calculated as the average of two bioreplicates, each of which contained two technical replicates.

[2] = target: T2, Nuclease H (synthetic construct); test: cell_activity; HEK293T; PAM CAC 3'
T2 chain: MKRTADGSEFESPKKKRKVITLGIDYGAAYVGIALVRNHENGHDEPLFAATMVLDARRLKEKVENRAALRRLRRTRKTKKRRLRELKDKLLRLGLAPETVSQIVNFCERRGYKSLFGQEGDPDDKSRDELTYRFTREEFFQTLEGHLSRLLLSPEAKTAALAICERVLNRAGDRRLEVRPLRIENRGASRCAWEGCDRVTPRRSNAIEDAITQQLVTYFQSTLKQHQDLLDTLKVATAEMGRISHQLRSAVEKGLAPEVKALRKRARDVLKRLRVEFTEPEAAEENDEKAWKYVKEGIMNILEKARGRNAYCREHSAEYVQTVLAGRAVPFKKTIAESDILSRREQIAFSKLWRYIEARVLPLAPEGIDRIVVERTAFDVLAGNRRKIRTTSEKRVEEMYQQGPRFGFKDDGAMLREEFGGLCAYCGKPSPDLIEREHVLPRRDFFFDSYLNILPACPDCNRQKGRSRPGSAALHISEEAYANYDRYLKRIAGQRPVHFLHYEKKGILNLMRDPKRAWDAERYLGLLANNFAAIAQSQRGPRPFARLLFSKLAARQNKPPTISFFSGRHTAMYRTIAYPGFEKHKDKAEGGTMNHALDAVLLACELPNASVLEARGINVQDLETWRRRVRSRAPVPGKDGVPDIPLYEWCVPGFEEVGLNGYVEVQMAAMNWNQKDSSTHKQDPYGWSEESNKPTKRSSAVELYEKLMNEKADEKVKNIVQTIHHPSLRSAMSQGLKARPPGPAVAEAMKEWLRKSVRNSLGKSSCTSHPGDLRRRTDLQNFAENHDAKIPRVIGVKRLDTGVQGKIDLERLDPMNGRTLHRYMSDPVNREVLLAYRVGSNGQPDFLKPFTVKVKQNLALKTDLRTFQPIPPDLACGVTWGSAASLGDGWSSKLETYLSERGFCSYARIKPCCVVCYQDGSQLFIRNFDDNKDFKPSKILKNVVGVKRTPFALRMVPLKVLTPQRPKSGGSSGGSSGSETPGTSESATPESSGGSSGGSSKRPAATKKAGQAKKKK

[3] = target: T3, Nuclease H T783R (synthetic construct, T783R); test: cell_activity; HEK293T; PAM CAC
T3 chain: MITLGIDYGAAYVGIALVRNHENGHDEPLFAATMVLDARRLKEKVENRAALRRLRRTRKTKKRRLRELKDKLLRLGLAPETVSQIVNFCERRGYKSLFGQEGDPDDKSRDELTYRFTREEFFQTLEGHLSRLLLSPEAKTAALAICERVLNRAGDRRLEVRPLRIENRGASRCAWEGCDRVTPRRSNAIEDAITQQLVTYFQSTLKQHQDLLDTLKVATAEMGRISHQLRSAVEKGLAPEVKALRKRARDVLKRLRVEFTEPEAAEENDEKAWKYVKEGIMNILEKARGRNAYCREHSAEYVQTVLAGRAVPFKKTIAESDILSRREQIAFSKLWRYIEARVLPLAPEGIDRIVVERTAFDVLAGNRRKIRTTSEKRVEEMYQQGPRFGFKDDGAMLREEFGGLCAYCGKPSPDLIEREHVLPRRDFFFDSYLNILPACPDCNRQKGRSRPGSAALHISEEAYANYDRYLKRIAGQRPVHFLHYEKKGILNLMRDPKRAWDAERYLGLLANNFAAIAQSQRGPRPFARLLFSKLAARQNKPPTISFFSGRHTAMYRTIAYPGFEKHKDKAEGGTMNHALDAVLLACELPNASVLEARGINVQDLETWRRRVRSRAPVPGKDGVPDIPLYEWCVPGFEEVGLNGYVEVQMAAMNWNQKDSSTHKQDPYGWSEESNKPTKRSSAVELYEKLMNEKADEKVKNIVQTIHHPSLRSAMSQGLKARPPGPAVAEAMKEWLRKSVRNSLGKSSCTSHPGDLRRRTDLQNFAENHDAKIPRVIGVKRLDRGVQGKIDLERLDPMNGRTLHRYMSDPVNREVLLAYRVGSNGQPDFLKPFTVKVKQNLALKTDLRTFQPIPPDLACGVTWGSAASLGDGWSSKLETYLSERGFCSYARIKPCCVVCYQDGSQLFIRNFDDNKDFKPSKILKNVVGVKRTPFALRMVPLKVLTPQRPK
Description: as §1, with “Nuclease H” for “Nuclease S”
Indel ratios, referring to the percentage of NGS reads comprising indels, were calculated for the reference and for each variant. The indel ratios used for fold change calculations were the average of two technical replicates. To then calculate fold change in indel ratios, the indel ratio for each variant was divided by the indel ratio for the reference. […] Numbering is relative to the reference nuclease of SEQ ID NO: 64 (i.e., without an NLS).

[4] = target: T2, Nuclease H; test: cell_activity; HEK293T; PAM GAC 3'

B1: S EMX1-T4 RNA guide ; EMX1-T4 target (S) (ssRNA ; dsDNA)
RNA: AUGACUCCAGGCCUCCCCAAGUUGUAUUCGGAUGGGAGUAAAAGGUUGAGUACACCUGGAAACAAAACGACAUAAAGGUGUUCUCCCAUCUGUGUACAAAGAGCAGAUAUAUGAGUUGAUAAGUAAUAUGUUGCACGUAUGGACUUUGACAGUCUGUACCUCUGCGUGAAAGACAUAUUGCGUUAUUCAUAUAUCUGUGAGUCUGUUCUAAAUUUAAAGGUUUAGGGAA
DNA 1: ATGACTCCAGGCCTCCCCAA
DNA 2: TTGGGGAGGCCTGGAGTCAT
B1 gave an activity [1] of 0.0265 indel ratio.

B2: S VEGFA-T4 RNA guide ; VEGFA-T4 target (S) (ssRNA ; dsDNA)
RNA: CUCUACACAAAUCUCUCCAGGUUGUAUUCGGAUGGGAGUAAAAGGUUGAGUACACCUGGAAACAAAACGACAUAAAGGUGUUCUCCCAUCUGUGUACAAAGAGCAGAUAUAUGAGUUGAUAAGUAAUAUGUUGCACGUAUGGACUUUGACAGUCUGUACCUCUGCGUGAAAGACAUAUUGCGUUAUUCAUAUAUCUGUGAGUCUGUUCUAAAUUUAAAGGUUUAGGGAA
DNA 1: CTCTACACAAATCTCTCCAG
DNA 2: CTGGAGAGATTTGTGTAGAG
With B2 the activity [1] was 0.0333 indel ratio.

B3: H EMX1-T5 RNA guide ; EMX1-T5 target (H) (ssRNA ; dsDNA)
RNA: GAGGCCUGGAGUCAUGGCCCGUUUCAAUCAACCUGAUCUCUCUGCUUGCGCUGCAGGCUUCAUAAGAUCAGUAGGUUGAAAAGAGCAUCCGUCCGACAUGCACUCCGGGAUGGGGCAGUCCCGGCUCUUGCGGUUCCCGAUGCAGUUAUGUGUCCGCGGAACACGGUGUCGGACACGUCGCAAGACAGGAUGUGAGCCCAUUAUCCACAUUAGGAUCAAUGUACGCAUGAGCAGUCCGCAAUGCCGGGGACGCU
DNA 1: GAGGCCTGGAGTCATGGCCC
DNA 2: GGGCCATGACTCCAGGCCTC
For B3, the activity [2] was 0.032 indel ratio and the “fold change in indel ratio vs reference” value [3] was 4.33 fold indel vs reference.

B4: H VEGFA-T6 RNA guide ; VEGFA-T6 target (H) (ssRNA ; dsDNA)
RNA: GACUCUUCAAAUCCUCCCUUGUUUCAAUCAACCUGAUCUCUCUGCUUGCGCUGCAGGCUUCAUAAGAUCAGUAGGUUGAAAAGAGCAUCCGUCCGACAUGCACUCCGGGAUGGGGCAGUCCCGGCUCUUGCGGUUCCCGAUGCAGUUAUGUGUCCGCGGAACACGGUGUCGGACACGUCGCAAGACAGGAUGUGAGCCCAUUAUCCACAUUAGGAUCAAUGUACGCAUGAGCAGUCCGCAAUGCCGGGGACGCU
DNA 1: GACTCTTCAAATCCTCCCTT
DNA 2: AAGGGAGGATTTGAAGAGTC
B4 showed an activity [4] of 0.0378 indel ratio.
